Consider 2 molecules from article PMC4851370, “The N-Terminus of the Floral Arabidopsis TGA Transcription Factor PERIANTHIA Mediates Redox-Sensitive DNA-Binding”.

Common to all, as to conditions: protein: ivt; tags: none; chain copies: 2; label: 5' 32P; blunt
One data set has as its target T1, … (PAN) (Arabidopsis thaliana, UniProt Q9SX27 1-452).
T1 sequence: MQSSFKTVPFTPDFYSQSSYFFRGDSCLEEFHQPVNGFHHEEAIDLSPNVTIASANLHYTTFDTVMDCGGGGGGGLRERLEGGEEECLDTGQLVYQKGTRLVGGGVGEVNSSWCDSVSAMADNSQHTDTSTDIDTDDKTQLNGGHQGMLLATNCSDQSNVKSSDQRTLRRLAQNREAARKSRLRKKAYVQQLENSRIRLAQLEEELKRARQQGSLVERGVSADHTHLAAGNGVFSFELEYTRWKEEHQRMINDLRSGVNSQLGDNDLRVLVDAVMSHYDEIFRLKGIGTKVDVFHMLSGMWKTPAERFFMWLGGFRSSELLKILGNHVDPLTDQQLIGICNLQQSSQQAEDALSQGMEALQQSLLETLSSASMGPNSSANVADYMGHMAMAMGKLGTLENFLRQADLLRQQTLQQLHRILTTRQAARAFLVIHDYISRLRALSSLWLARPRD
The data set can be described thus: EMSA; EMSA as in cited ref 20 (buffer, salt, pH, temperature not given); with or without 0.9 or 20 mM DTT or 2 mM diamide, 30 min in the dark before probe addition. In general terms: In EMSA bound probe runs differently from free probe, usually more slowly.

For another data set, the target named is T2, TGA1 (Arabidopsis thaliana, UniProt Q39237 1-368).
T2 sequence: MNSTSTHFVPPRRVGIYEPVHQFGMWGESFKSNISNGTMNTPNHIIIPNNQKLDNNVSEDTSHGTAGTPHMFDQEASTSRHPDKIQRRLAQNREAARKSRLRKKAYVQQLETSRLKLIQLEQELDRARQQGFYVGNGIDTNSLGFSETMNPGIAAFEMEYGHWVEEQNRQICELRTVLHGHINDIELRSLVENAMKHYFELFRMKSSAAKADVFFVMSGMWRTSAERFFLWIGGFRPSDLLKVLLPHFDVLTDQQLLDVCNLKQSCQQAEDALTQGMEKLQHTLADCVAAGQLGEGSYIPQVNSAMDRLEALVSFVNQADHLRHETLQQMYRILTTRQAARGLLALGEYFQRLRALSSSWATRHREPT
The data set can be described thus: EMSA; 0.9 mM DTT; EMSA as in cited ref 20 (buffer, salt, pH, temperature not given); with or without 0.9 or 20 mM DTT or 2 mM diamide, 30 min in the dark before probe addition.

The target of another data set is T3, PANC68SC87S (Arabidopsis thaliana, UniProt Q9SX27 1-452, C68S;C87S).
T3 sequence: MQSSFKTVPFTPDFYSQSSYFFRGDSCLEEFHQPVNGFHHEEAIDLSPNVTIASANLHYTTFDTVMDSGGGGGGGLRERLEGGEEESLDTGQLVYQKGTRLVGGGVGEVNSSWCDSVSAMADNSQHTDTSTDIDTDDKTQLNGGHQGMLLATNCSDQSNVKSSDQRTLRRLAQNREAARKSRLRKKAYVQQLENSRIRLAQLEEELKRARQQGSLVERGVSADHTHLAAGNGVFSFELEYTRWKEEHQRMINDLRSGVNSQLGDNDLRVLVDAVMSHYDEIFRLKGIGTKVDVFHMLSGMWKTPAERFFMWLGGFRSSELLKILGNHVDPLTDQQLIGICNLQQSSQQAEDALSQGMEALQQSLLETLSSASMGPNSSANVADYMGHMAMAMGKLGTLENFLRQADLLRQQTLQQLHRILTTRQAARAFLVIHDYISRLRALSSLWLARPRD
The description is as above.

The next data set has as its target T4, TGA2 (Arabidopsis thaliana, UniProt P43273 1-330).
T4 sequence: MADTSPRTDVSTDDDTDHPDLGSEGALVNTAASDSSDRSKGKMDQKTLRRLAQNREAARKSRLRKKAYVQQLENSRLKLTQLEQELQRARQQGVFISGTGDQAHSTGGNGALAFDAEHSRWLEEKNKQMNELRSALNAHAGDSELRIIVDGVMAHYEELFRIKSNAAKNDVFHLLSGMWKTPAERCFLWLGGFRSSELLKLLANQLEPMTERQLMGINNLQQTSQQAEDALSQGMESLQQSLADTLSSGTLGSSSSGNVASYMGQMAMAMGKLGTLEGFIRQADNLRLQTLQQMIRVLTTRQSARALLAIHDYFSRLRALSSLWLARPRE
The data set is described as above.

The next data set has as its target T5, TGA3 (Arabidopsis thaliana, UniProt Q39234 1-384).
T5 sequence: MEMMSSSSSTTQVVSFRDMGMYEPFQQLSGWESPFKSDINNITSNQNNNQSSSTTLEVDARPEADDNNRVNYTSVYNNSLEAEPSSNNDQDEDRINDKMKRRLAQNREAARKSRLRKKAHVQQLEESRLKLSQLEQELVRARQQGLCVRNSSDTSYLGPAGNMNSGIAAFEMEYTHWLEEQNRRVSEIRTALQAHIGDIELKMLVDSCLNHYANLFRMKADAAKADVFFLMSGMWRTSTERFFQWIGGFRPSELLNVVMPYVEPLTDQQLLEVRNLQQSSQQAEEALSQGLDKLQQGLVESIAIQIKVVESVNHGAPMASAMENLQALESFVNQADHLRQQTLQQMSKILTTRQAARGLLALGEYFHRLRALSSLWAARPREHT
Described as above.

The target in the next data set is T6, TGA10 (Arabidopsis thaliana, UniProt E3VNM4 1-460).
T6 sequence: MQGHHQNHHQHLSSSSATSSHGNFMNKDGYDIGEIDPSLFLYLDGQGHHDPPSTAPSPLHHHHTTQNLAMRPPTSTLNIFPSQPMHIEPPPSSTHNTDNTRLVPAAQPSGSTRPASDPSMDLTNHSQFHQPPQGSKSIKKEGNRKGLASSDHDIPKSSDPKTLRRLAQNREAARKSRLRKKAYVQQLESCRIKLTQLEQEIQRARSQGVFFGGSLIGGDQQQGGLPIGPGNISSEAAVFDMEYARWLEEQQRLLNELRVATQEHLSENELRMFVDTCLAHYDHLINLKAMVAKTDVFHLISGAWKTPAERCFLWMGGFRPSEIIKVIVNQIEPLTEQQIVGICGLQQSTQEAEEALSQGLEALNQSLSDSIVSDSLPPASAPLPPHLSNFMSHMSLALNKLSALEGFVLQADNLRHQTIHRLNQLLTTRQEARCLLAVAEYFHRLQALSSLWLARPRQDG
Described as above.

The target in the next data set is T7, PANΔN (Arabidopsis thaliana, UniProt Q9SX27 167-452, del1-166).
T7 sequence: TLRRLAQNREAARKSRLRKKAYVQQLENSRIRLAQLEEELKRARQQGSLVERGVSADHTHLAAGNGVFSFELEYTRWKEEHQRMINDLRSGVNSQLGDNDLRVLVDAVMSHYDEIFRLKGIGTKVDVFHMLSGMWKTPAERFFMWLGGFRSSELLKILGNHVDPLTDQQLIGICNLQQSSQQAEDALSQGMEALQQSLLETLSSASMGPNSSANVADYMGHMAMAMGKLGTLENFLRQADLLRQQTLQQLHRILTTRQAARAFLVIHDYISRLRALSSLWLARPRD
The data set can be described thus: EMSA; 2 mM diamide; no reduction; EMSA as in cited ref 20 (buffer, salt, pH, temperature not given); with or without 0.9 or 20 mM DTT or 2 mM diamide, 30 min in the dark before probe addition.

Data set [1] deals with T8, PANC27SC68SC87SC114SC154S (Arabidopsis thaliana, UniProt Q9SX27 1-452, C27S;C68S;C87S;C114S;C154S).
T8 sequence: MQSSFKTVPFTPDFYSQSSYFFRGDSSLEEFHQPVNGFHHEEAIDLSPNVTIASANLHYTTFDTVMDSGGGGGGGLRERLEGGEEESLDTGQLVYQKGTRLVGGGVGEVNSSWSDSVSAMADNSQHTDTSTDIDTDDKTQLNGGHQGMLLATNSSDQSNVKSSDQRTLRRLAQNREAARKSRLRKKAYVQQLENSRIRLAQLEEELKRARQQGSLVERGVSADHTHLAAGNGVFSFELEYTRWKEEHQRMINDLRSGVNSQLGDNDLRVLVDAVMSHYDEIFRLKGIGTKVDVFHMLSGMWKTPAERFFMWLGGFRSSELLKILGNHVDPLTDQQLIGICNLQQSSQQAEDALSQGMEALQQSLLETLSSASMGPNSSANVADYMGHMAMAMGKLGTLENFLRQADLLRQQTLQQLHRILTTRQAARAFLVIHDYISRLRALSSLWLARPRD
The data set can be described thus: EMSA; 2 mM diamide; no inhibition; EMSA as in cited ref 20 (buffer, salt, pH, temperature not given); with or without 0.9 or 20 mM DTT or 2 mM diamide, 30 min in the dark before probe addition.

Data set [2] concerns the target T9, PANC27SC68SC87SC114SC154SC340S (PAN6xCysmut) (Arabidopsis thaliana, UniProt Q9SX27 1-452, C27S;C68S;C87S;C114S;C154S;C340S).
T9 sequence: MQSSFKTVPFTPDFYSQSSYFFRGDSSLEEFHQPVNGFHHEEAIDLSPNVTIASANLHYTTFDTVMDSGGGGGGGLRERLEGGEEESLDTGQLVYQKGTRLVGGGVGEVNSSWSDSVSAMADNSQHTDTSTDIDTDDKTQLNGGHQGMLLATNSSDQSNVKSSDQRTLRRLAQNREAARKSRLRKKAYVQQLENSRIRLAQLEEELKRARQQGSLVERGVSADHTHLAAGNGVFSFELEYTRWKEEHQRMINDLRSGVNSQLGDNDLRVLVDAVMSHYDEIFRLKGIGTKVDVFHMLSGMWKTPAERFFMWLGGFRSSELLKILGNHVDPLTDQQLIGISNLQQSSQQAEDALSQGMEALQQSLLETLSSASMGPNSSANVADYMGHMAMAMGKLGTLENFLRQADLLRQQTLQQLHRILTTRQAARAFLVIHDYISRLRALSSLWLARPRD
The data set is described as above.

B1: AAGAAT (dsDNA)
DNA 1: AAGAATCTTTGATCACGTCATCACTCAGATATT
DNA 2: AATATCTGAGTGATGACGTGATCAAAGATTCTT
As for B1, the binding result with … (PAN), with TGA1, with PANC68SC87S, with TGA2, with TGA3 and with TGA10 was “binds” in each case. In addition, the binding result (in the data set with PANΔN; in [1]; in [2]) was “binds” each time.

B2: ΔbZIP (dsDNA)
DNA 1: AAGAATCTTTGATCAAATCATCACTCAGATATT
DNA 2: AATATCTGAGTGATGATTTGATCAAAGATTCTT
Consider B2, for which the binding result with … (PAN) is listed as “no binding”.
